B1: COP1‐His (natural protein)
chain: MEEISTDPVVPAVKPDPRTSSVGEGANRHENDDGGSGGSEIGAPDLDKDLLCPICMQIIKDAFLTACGHSFCYMCIITHLRNKSDCPCCSQHLTNNQLYPNFLLDKLLKKTSARHVSKTASPLDQFREALQRGCDVSIKEVDNLLTLLAERKRKMEQEEAERNMQILLDFLHCLRKQKVDELNEVQTDLQYIKEDINAVERHRIDLYRARDRYSVKLRMLGDDPSTRNAWPHEKNQIGFNSNSLSIRGGNFVGNYQNKKVEGKAQGSSHGLPKKDALSGSDSQSLNQSTVSMARKKRIHAQFNDLQECYLQKRRQLADQPNSKQENDKSVVRREGYSNGLADFQSVLTTFTRYSRLRVIAEIRHGDIFHSANIVSSIEFDRDDELFATAGVSRCIKVFDFSSVVNEPADMQCPIVEMSTRSKLSCLSWNKHEKNHIASSDYEGIVTVWDVTTRQSLMEYEEHEKRAWSVDFSRTEPSMLVSGSDDCKVKVWCTRQEASVINIDMKANICCVKYNPGSSNYIAVGSADHHIHYYDLRNISQPLHVFSGHKKAVSYVKFLSNNELASASTDSTLRLWDVKDNLPVRTFRGHTNEKNFVGLTVNSEYLACGSETNEVYVYHKEITRPVTSHRFGSPDMDDAEEEAGSYFISAVCWKSDSPTMLTANSQGTIKVLVLAA
notes: COP1 (CONSTITUTIVELY PHOTOMORPHOGENIC 1) E3 ubiquitin ligase, Arabidopsis thaliana, full-length CDS cloned into pET-20b(+); also called COP1‐6His; source: E. coli BL21 (DE3), purified by Ni‐NTA Agarose beads; not shown: His6, C-terminal, kept

Legend:
GST‐CAM7 = target: T1, GST‐CAM7 (Arabidopsis thaliana, UniProt P59220 1-149); assay: pull-down; 2 μg COP1‐His bound to Ni‐NTA beads; GST fusions or GST added in an equimolar ratio, overnight at 4°C; 50 mM Tris‐Cl pH 7.5, 100 mM NaCl, 0.2% glycerol, 0.1% triton, 1 mM EDTA, 0.1% NP‐40; anti‐GST immunoblot; details: both partners purified
T1 construct: Vector pGEX-4T2; also called Calmodulin7; CAM7/ZBF3; source: E. coli BL21 (DE3), purified by Glutathione sepharose 4B beads

COP1‐His = target: B1; assay: as above; details: both partners purified

Binder | binding result (GST‐CAM7) | binding result (COP1‐His)
B1 | binds | –
GST‐HY5 (natural protein, Arabidopsis thaliana, UniProt O24646 1-168, looked up, Positive control of the pull-down; also called ELONGATED HYPOCOTYL5; source: E. coli BL21 (DE3), purified by Glutathione sepharose 4B beads) MQEQATSSLAASSLPSSSERSSSSAPHLEIKEGIESDEEIRRVPEFGGEAVGKETSGRESGSATGQERTQATVGESQRKRGRTPAEKENKRLKRLLRNRVSAQQARERKKAYLSELENRVKDLENKNSELEERLSTLQNENQMLRHILKNTTGNKRGGGGGSNADASL | – | binds

— PMC6593147, “COP1 regulates the stability of CAM7 to promote photomorphogenic growth” (Plant Direct, 2019)
